Here are results for 30 sequences from the nanobody polyreactivity screen of Harvey et al. (2022).

The data set can be described thus: yeast display, Sf9 membrane polyspecificity reagent, FACS + sequencing; frameworks hold sequencing errors. Summed up: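 After 36–48 hours of galactose induction, yeast (Saccharomyces cerevisiae BJ5465) displaying a synthetic nanobody library were stained at 4 °C for 1 hour with 10% biotinylated, detergent-solubilized Sf9 membrane reagent. Streptavidin microbeads enriched the stained cells before FACS sorting into low and high (top ~1%) gates on anti-HA and streptavidin fluorescence. Each clone's polyreactivity label reflects its gate of origin.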
Turning to “QVQLVESGGGLVQAGGSLRLSCAASGITFGRKTMGWYRQAPGKERELVAAIDSGGNTYADSVKGRFTISRDNAKNTVYLQMNSLKPEDTAVYYCAVDGGVFSSYGYWGQGTLVTVSS”, the “polyreactivity (PSR sort gate)” value is on record as “low polyreactivity”.
As for “QVQLVESGGGLVQAGGSLRLSCAASGITFGRNTMGWYRQAPGKERELVAAIDSGGNTYADSVKGRFTISRDNAKNTVYLQMNSLKPEDSAVYYCAVDGGEFSSYGYWGQGTQVTVSS”, the “polyreactivity (PSR sort gate)” value is “low polyreactivity”.
Next, “QVQLVESGGGLVQAGGSLRLSCAASGITFGSYAMGWYRQAPGKERELVAAINSRGSRTYYADSVKVRFTISRDNAKNTVYLQMNSLKPEDTAVYYCAASNSHVGPNDYWGQGTQVTVSS”: “high polyreactivity”.
Next, “QVQLVESGGGLVQAGGSLRLSCAASGITFGVYARGWYRQAPGKEREFVADIDRTRGSTYADSVKGRFTISRDNAMNTVYLQMNSLKPEDTAVYYCAAGWGFRFYYWYWGQGTHVTVSS”: “high polyreactivity”.
For the sequence “QVQLVESGGGLVQAGGSLRLSCAASGITFGWYAMGWYRQAPGKERELVAAITWDGGSTYYADSVKGRFTFSRDNAKNTVYLQMNSLKPEDTAVYYCAAEYIYYYYLVARDYWGQGTQVTVSS”, the “polyreactivity (PSR sort gate)” value is “high polyreactivity”.
Next, “QVQLVESGGGLVQAGGSLRLSCAASGITFGYNAMGWYRQAPGKERELVAAISWRVGSTSYADSVKGRFTISRDNAKNTVYLQMNSLKPEDTAVYYCAAVRYNYNFKMYYWGQGTQVTVSS”: “high polyreactivity”; “QVQLVESGGGLVQAGGSLRLSCAASGITFGYNTMGWYRQAPGKERELVAAISGSGGRTYYADSLKGRFTISRDNSKNTVYLQMNSLKPEDTAVYYCAARWPIWSSLYDYWGQGTQVTVSS”: “high polyreactivity”.
Next, “QVQLVESGGGLVQAGGSLRLSCAASGITFGYYAMGWYRQAHGKERELVAAITYSGGSTYYADSVKGRFTISRDNAKNTVYLQMNSIKPEDTAVYYCAADDGYTYYWAGYDSWGQGTQVSVSS”: “low polyreactivity”.
As for “QVQLVESGGGLVQAGGSLRLSCAASGITFHRYAMRWYRQAPGKERELVAAINGGGGSTYYADSVKGRFTISRDNAKNTVYLQMNSLKPEDTAVYYCAAEVQNGVHIYDYWGQGTQVTVSS”, the entry is “high polyreactivity”; as for “QVQLVESGGGLVQAGGSLRLSCAASGITFIINAMGWYRQAPGKERELVAAISWRGGNTHYADSVKGRFTISRDYAKNTVYLQLNSLKAEVTAVYYCAARVTSRRDPDQKHGYWGQGTQVTVSS”, “high polyreactivity”.
As to “QVQLVESGGGLVQAGGSLRLSCAASGITFIQYAMGWYRQAPGKERELVAAISSGGRTYYADSVKGRFTISRDNAKNTVYLQMNSLKPEDTAVYYCARDIQHYGGDSWGQGTQVTVSS”, the “polyreactivity (PSR sort gate)” value is “low polyreactivity”.
As for “QVQLVESGGGLVQAGGSLRLSCAASGITFIRNAMGWYRQAPGKERELVAAISYRGGSTYYADSVKGRFTISRDNAKNTVYLQMNSLKPEDTAVYYCAAARKLDATTYYKFDYWGQGTQVTVSS”, the entry is “high polyreactivity”; as for “QVQLVESGGGLVQAGGSLRLSCAASGITFIRNAMGWYRQAPGKERELVAAISYRGGSTYYADSVKGRFTISRDNAKNTVYLQMNSLKPEDTAVYYCAAKRYGYKMYYWGQGTQVTVSS”, “high polyreactivity”.
Regarding “QVQLVESGGGLVQAGGSLRLSCAASGITFISYAMGWYRQAPGKEMELVAAISSSGGRTYYADSVKGRFTISRDNAKNTVYLQMNSLKPEDTAVYYCAADGYPEYPRYGYWGQGTQVTVSS”, the “polyreactivity (PSR sort gate)” value is “high polyreactivity”.
For “QVQLVESGGGLVQAGGSLRLSCAASGITFIVNTMGWYRQAPGKEREFVATISANSDGTYYADSVKGRFTISRDIAKNTVYLQKNSLKPEDTAVYYWGQGTQVTVSS”, the “polyreactivity (PSR sort gate)” value is listed as “low polyreactivity”.
Next, “QVQLVESGGGLVQAGGSLRLSCAASGITFIYYAMGWYRQAPGKERELVAAISRSGGSTYYADSVKGRFTISRDNAKNTVYLQMNSLKPEDTAVYYCAADGTKFSGRVTGDYWGQGTQVTVSS”: “high polyreactivity”; “QVQLVESGGGLVQAGGSLRLSCAASGITFIYYAMGWYRQAPGKERELVAAITWRGGSTYYADSVKGRFTISRDNAKYTVYLQMNSLKPEDTAVYYCNKGGISGRDYWGQGTQVTVSS”: “high polyreactivity”.
With “QVQLVESGGGLVQAGGSLRLSCAASGITFIYYHMGWYRQAPGKERELVAAINWSGGRTYYADSVKGRFTISRDNAKNTVYVQMNSLIPEDTAVYYCAADSWRPVYLGYYWGQGTQVTVSS”, the “polyreactivity (PSR sort gate)” value is on record as “high polyreactivity”.
As for “QVQLVESGGGLVQAGGSLRLSCAASGITFKDYAMGWYRQATGKERELVAVISYSGGSTYYADSVKGRFTISRDNAKNTVYLQMNSLKPEDTAVYYCAARVGPEYDWGQGTQVTVSS”, the entry is “low polyreactivity”; as for “QVQLVESGGGLVQAGGSLRLSCAASGITFKGNAMGWYRQAPGKERELVAAIRWRAGRTYYADSVKGRFTISRDNAKNTVYLQMNSLKPEDTAVYYCAAVGRYAYRRGSFLAYKSNYDYWGQGTQVTVSS”, “high polyreactivity”; as for “QVQLVESGGGLVQAGGSLRLSCAASGITFKGYTMGWYRQAPGKERELVATISRGGRTYADSVKGRFTISRDNAKNTVYLQMNSLKPEDTAVYYCAADKYWAQNDYWGQGTQVTVSS”, “low polyreactivity”.
On to “QVQLVESGGGLVQAGGSLRLSCAASGITFKTYAMGWYRQAPGKERELVATINRGSRTNYADSVKGRFTISRDNAKNTVYLQMNSLKPEDTAVYYCAAHYTTFIPSPDGDYLGQGTQVTVSS”, for which the “polyreactivity (PSR sort gate)” value is given as “low polyreactivity”.
As for “QVQLVESGGGLVQAGGSLRLSCAASGITFKYYAMGWYRQAPGKERELVAAISRGGTTSYADSVKGRFTISRDNAKNTVYLQMNSLKPEETAVYYCAAKYWWYPYFTVDYDYWGQGTQVTVSS”, the entry is “high polyreactivity”; as for “QVQLVESGGGLVQAGGSLRLSCAASGITFKYYAMGWYRQAPGKERELVAAITRGGSTYYADSVKRRFTISRDNAKTTVYLQMNSLKPVDTAVYYCNKARTYELYWGQGTQVTVSS”, “high polyreactivity”.
Next, “QVQLVESGGGLVQAGGSLRLSCAASGITFKYYTMAWYRQAPGKERELVAAISRSGGSTYYADSVKGRFTISRDNAKNTVYLQMMSLKPEDTAVYYCAAERGAYRGVTFTYGYWGQGTQVTLSS”: “high polyreactivity”; “QVQLVESGGGLVQAGGSLRLSCAASGITFLHYAMGWYRQAPGKERELVARITYSGSSTYYADSVKGRFTISRDNAKNTVYLQMNSLKPEDTAVYYCNARASWGRWSRTGTPRYDYWGQGTQVTVSS”: “high polyreactivity”.
As for “QVQLVESGGGLVQAGGSLRLSCAASGITFLHYAMGWYRQAPGQERELVAAIDYSGGSTYYADSVKGRFTISRDNAKNTVYLEMKSLKPEDTAVYYCNARVPRYNGGSTMEYWGQGTQVTVSS”, the entry is “high polyreactivity”; as for “QVQLVESGGGLVQAGGSLRLSCAASGITFLPYAMGWYRQAPGKERELVAAITRGGGSTYADSVKGRFTISRDNAKNSVYFQMISLKPEDTAVYYCAKLYGRGSWYEDYDYWGQGTQVTVSS”, “low polyreactivity”; as for “QVQLVESGGGLVQAGGSLRLSCAASGITFNLNDMGWYRQAPGKERELVAAITSGGNTSYADSVKGRFTISRDNAKNTVYLQMNSLKPEDTAVYYCAADLHTELYKMDYWGQGTQVTVSS”, “low polyreactivity”.
As for “QVQLVESGGGLVQAGGSLRLSCAASGITFNPYTMGWYRQAPGKERELVADINRGGDTTYADSVKGRFTISRDNAKNTVYLQMNSLKPEDTAVYYCAKRLVQWMDYWGQGTQVTVSS”, the “polyreactivity (PSR sort gate)” value was “low polyreactivity”.
